Assay results from patent US20260028400A1.

Biological target: ROR1 expressed on cell surface (Jeko-1 cell line, AMB-LC-0003T and AMB-LC-0002T patient-derived lung cancer cells) (human) (UniProt Q01973)
Assay: cell-based or functional assay

Chain of ROR1 expressed on cell surface (Jeko-1 cell line, AMB-LC-0003T and AMB-LC-0002T patient-derived lung cancer cells) (human) (Q01973 30-937): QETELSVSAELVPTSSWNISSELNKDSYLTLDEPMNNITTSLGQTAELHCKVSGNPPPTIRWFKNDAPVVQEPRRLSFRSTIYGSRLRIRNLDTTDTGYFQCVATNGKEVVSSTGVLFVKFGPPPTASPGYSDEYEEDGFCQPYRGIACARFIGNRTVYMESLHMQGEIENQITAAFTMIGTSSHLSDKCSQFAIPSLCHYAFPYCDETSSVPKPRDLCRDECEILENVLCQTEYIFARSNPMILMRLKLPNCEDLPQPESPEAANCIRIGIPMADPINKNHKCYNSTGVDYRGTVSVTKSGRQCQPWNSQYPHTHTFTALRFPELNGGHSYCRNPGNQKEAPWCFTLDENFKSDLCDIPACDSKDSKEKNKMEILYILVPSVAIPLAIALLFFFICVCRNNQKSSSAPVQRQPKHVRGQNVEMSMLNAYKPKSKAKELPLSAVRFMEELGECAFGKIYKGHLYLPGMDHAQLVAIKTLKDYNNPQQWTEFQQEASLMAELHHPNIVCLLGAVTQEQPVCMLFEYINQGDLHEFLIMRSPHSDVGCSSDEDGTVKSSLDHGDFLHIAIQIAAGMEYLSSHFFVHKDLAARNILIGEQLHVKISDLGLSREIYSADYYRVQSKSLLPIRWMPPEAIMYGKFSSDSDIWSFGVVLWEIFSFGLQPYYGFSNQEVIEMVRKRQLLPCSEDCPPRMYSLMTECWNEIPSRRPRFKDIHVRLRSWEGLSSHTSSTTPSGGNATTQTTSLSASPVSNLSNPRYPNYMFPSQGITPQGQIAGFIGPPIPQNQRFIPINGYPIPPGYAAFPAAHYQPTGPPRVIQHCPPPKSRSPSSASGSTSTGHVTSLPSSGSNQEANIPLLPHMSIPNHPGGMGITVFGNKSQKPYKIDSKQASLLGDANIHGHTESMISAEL

Fold Change of IC50, AMB-LC-0002T/AMB-LC-0003T: 11.1 fold | IC50 (nM), spheroid volume, AMB-LC-0002T (low ROR1 expression): 282 nM | IC50 (nM), spheroid volume, AMB-LC-0003T (high ROR1 expression): 25.4 nM
Substance: UC961-vc-PAB-MMAE (antibody)
